Measurements: the supplement of paper PMC9170038

Test system: MS2 coat protein
Test: apparent KD of MS2 coat protein; designed switch direction (-1 OFF switch, 1 ON switch): -1; higher = weaker reporter binding
Method in brief: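 Designed RNA switches with common flanks were transcribed on Illumina chips by stalled E. coli RNA polymerase and titrated with SNAP-549-labelled MS2 coat protein, from 0.7 or 1.5 nM doubling to 3 µM, in Tris-HCl pH 7.5 buffer with KCl, MgCl2, BSA, DTT, tRNA and Tween-20. Steps lasted 0.8–1.5 h (lowest) to 10–20 min (highest). Titrations ran without input, with 200 uM small-molecule ligand, or with an oligonucleotide input. Normalised cluster fluorescence was curve-fitted, and apparent KD is the per-design median over clusters.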

[1] = input ligand: microRNA oligo, concentration not stated
[2] = Eterna round: R95, input ligand: microRNA oligo, concentration not stated
[3] = Eterna round: R95, input ligand: FMN 200 uM
[4] = Eterna round: R95, input ligand: none

Row | Sequence | apparent KD of MS2 coat protein (input ligand: FMN 200 uM) [nM] | apparent KD of MS2 coat protein (input ligand: none) [nM] | apparent KD of MS2 coat protein [2] [nM] | also measured
1 | UUUCUUCAUAUCACAUGAGGAUCACCCAUGUUAUUCAUCGCGUAGGAUAUCGAGAAUUUUAAAUACGAGAAGGACGUAUUGAUA [JR_ExcNG3_Sub072] (Eterna round: R96, puzzle: Exclusion NG 3) | 43.4 | 38.8 |  | apparent KD of MS2 coat protein [1]: 31.1 nM
2 | UUUGUUGUUGUGAGGAUAUACUGUUUGUUUUGUUUGUAGAAGGUACAUGAGGAUCACCCAUGUUGGUUGUUUUU [JR_BME4_Sub030] (puzzle: Brourd's mod of Exclusion 4) |  |  | 24.3 | 
3 | UUUGUUGUUGUGAGGAUAUCGUAGUUAUUUUGUAACGAGAAGGCACAUGAGGAUCACCCAUGUUUUUUGAUGGU [JR_BMOE4_Sub063] (puzzle: Brourd's mod of Exclusion 4) |  |  | 24.9 | 
4 | UUUGUUUUGCAAGGAUAUGUUUAAUUUUAGUUUCCUUACACAUGAGGAUCACCCAUGUUAUACUUACAGAAGGUGCGUAAUUUU [Excl-NG2-LRO02] (Eterna round: R96, puzzle: Exclusion NG 2) |  |  |  | apparent KD of MS2 coat protein [1]: 104 nM
5 | UUUUAACAUGAGGAUCACCCAUGUGAGGAUAUCCUAUUUUUUUUUUUUUUUUUUUUUUGGAGAAGGCACAUUUU [My solution] (puzzle: Exclusion 1) |  |  | 38.3 | apparent KD of MS2 coat protein [3]: 23.1 nM; apparent KD of MS2 coat protein [4]: 7.45 nM
6 | UUUUAACAUGAGGAUCACCCAUGUGAGGAUAUCGAAAUUUAUAUUAAUAUUAAUAAUACGAGAAGGCACAUUUU [JMF 22] (puzzle: Exclusion 1) |  |  | 71 | 
7 | UUUUAACAUGAGGAUCACCCAUGUGAGGAUAUCGAAAUUUAUAUUAAUAUUAUUAAAUCGAGAAGGCACAUUUU [JMF 36] (puzzle: Exclusion 1) |  |  | 104 | 
8 | UUUUAACAUGAGGAUCACCCAUGUGAGGAUAUCGAAAUUUAUAUUAAUAUUAUUUUUACGAGAAGGCACAUUUU [JMF 50] (puzzle: Exclusion 1) |  |  | 99.2 | 
9 | UUUUAACAUGAGGAUCACCCAUGUGAGGAUAUCGAAAUUUAUAUUAAUAUUUAUUAUUCGAGAAGGCACAUUUU [JMF 61] (puzzle: Exclusion 1) |  |  | 119 | 
10 | UUUUAACAUGAGGAUCACCCAUGUGAGGAUAUCGAAAUUUAUAUUAAUAUUUUUAUAACGAGAAGGCACAUUUU [JMF 71] (puzzle: Exclusion 1) |  |  | 64.8 | 
11 | UUUUAACAUGAGGAUCACCCAUGUGAGGAUAUCGAAAUUUAUAUUUAUAUUAAUUAAACGAGAAGGCACAUUUU [JMF 83] (puzzle: Exclusion 1) |  |  | 74 | 
12 | UUUUAACAUGAGGAUCACCCAUGUGAGGAUAUCGAUUUUUUUAUUAAUAUUAAUAAAACGAGAAGGCACAUUUU [JMF 19] (puzzle: Exclusion 1) |  |  | 73.5 | 
13 | UUUUAACAUGAGGAUCACCCAUGUGAGGAUAUCGUUUUUUUUUUUUUUUUUUUUUUUUCGAGAAGGCACAUUUU [My solution] (puzzle: Exclusion 1) |  |  | 84 | apparent KD of MS2 coat protein [3]: 127 nM; apparent KD of MS2 coat protein [4]: 14 nM
14 | UUUUACAAGCUAAGAUCCUACAUGAGGAUCACCCAUGUGGUCCGGUGACGUGAGUCACCGGACUUAGCUCGUCUUGA [salish99_S_TOV1_R5_085] (Eterna round: R97, puzzle: Sensor, turn-off variant 1) | 38.9 | 40.4 |  | 
15 | UUUUACCGAGGAUAUACAUUUUUUUUAUUAUCCUCAUUAUUACAUGAGGAUCACCCAUGUAGAAGGCGGAUUUU [My Design] (puzzle: Exclusion 2) |  |  | 56.9 | 
16 | UUUUAGCAAGCGAGAUCCCACAUGAGGAUCACCCAUGUGCAUCCAGAAUUACUUUUUGCAUAAGCUCGUCUUAUAUA [JR_STOV1_v2_Sub080] (Eterna round: R97, puzzle: Sensor, turn-off variant 1) | 58.8 | 64.5 |  | 
17 | UUUUCACAUGAGGAUCACCCAUGUGAGGAUAUGGAUUCGCUGGCCGUAGCCAGUGGAUCCAGAAGGCGCAUGAU [JL-ex1-4.06] (Eterna round: R97, puzzle: Exclusion 1) | 36 | 32.8 |  | 
18 | UUUUCCAGAGGAUAUGCGAAUAAAUAAAACUUUUUUUUUUAACAUGAGGAUCACCCAUGUAGAAGGCUGCUUUU [Ex2 #27] (Eterna round: R97, puzzle: Exclusion 2) | 27.1 | 30.1 |  | 
19 | UUUUGGCAAGCGAGAUCCUACAUGAGGAUCACCCAUGUUGACCAUGGUUUCCAUGGUCUUUUUGCUCGUCUUGUGUG [jl TITIN mod 3] (Eterna round: R97, puzzle: Sensor, turn-off variant 1) | 21.1 | 23.1 |  | 
